Target: ITPKB (UniProt P27987)
Test: co-immunoprecipitation, immunoblot
Settings: reference: wild-type Trim25; sites S100

binding against the reference: weaker
Substance: Trim25 (from UniProt Q14258) Trim25 S100A

Reference: article PMC10912509
